For assay [1], the target named is Respiratory Syncytial Virus fusion glycoprotein (RSV F) on RSV-A2 virus (Respiratory Syncytial Virus subtype A (RSV-A2)). The assay is described as follows: cell-based or functional assay.
The target of assay [2] is RSV prefusion F (preF), DS-Cav1 (Respiratory Syncytial Virus). The assay is described as follows: BLI, IgG on anti-human IgG sensor, 100 nM antigen. In general terms: In BLI a coated tip is dipped into the sample, and binding shifts an interference pattern.

Substitutions are numbered along the chain they refer to.

A word on the Kd: it is a measure of binding affinity in units of concentration. A high value points to a looser complex.

B1: ADI-36681 (antibody, V domains shown)
VH: EVQLVESGAEVKKPGESLKISCKASGYSFTRYWIGWVRQMPGKGLEWMGIIFPGDSDTRYCPSFEGQVTISADRSINTAYLQWSSLKASDSAMYYCVTLYTDYDYGAPDHWGQGTLVTVSS
VL: DIVLTQSPATLSVSPGERATLSCRASQSLSGDLAWYQQKPGQAPRLLIYATSTRATGIPARFSGSGSGAEFTLTISSLQSEDFAVYYCQQYYDWPLLTFGPGTKVEIK
Take B1: the Neutralization IC50 (RSV subtype A) in assay [1] came out at 0.01 µg/mL. In assay [2], this molecule showed an equilibrium dissociation constant (Kd) of 1200 pM.

B2: ADI-41210 (antibody, V domains shown)
VH: QVQLVQSGAEVKKPGASVKVSCKASGYTFNNYGISWVRQAPGQGLEWMGWISAYNGDIKYAQKFQGRVTVTTDTSTSTAYMELRSLRSDDTAVYYCARDTPVGGGTQTFDYWGQGTLVTVSS
VL: ETTLTQSPLSLPVTLGQPASISCRSSQSLVHSNGNTYLNWFQQRPGQSPRRLIYTVSNRDSGVPDRFSGSGSGTDFTLKISRVEAEDVGVYYCMQATHRPGTFGQGTKVEIK
In assay [1], B2 yielded a Neutralization IC50 (RSV subtype A) of 0.1 µg/mL. The same molecule displayed a Kd in assay [2] of 470 pM.

B3: ADI-41193 (antibody, V domains shown)
VH: EVQLVESGGGLVKPGMSLRLSCAASGFRFSDHYMNWIRQAPGKGLEWVSYISSSSTYTDYTDSVKGRFTISRDNSKNSVYLQMNSLRAEDTAIYYCARVAPIRHNGDYIDYWGQGTTVTVSS
VL: NFMLTQPPSASGTPGQRVTISCTGSSSNIGAGYDVHZYQQIPGTAPKLLIYGNNNRPSGVPDRFSGSKSGTSASLAITGLQTEDEADYYCQSYDRGLSGRVFGTGTKVTVL
As for B3, the Neutralization IC50 (RSV subtype A) in assay [1] amounted to 0.07 µg/mL. In addition, the Kd in assay [2] is 740 pM.

B4: ADI-41180 (antibody, V domains shown)
VH: EVQLVQSGGGLVKPGGSLRLSCAASGFTFIDYYMSWIRQAPGKGLEWVSSISGGSTYTTYADSVKGRFTISRDNGKNSLYLQMDSLRAEDTAVYYCARLGGYSYYMDVWGKGTTVTVSS
VL: QPVLTQPPSVSGAPGQRVTISCTGSSSNIGAGYDVHWYQHLPGAAPKLLIYDNTNRPSGIPDRFSGSKSGTSASLAITGLQAEDEADYYCQSYDSSLDWVFGGGTKVTVL
In the case of B4, the Neutralization IC50 (RSV subtype A) in assay [1] was determined as 0.07 µg/mL. In assay [2], this molecule displayed a Kd of 470 pM.

B5: ADI-41217 (antibody, V domains shown)
VH: EVQLVQSGGGLVKPGGSLRLSCVASGFTFSSYSMNWVRQAPGKGLEWVSSISASSSYIDYADSVKGRFTISRDNDKKSLYLQMSSLRAEDTAVYYCAREDYDSLTGYYSPKRFDPWGQGTLVTVSS
VL: B4 VL with P2S, V10L, H40Q, A44T, D52G, T54N, I60V, S95R, D98S, W99V
As for B5, the Neutralization IC50 (RSV subtype A) in assay [1] was found to be 0.04 µg/mL. In assay [2], this molecule gave a dissociation constant Kd of 489 pM.

B6: ADI-36671 (antibody, V domains shown)
VH: EVQLLESGGGLVKPGGSLRLSCAASGFTFSGYYMTWIRQAPEKGLEWVSYISGGSTYTNYADSVRGRFTISRDNARNSLYLQMNSLRAEDTAVYYCARDGGYGIGPLYWGQGSLVTVSS
VL: QPVLTQPPSVSGAPGQRVTISCTGSSSNIGAPFDVHWYQQLPGTAPKPLIYGNSNRPSGVPDRFSGSKSGTSASLAITGLQAEDEADYYCQSYDSSLGGYVFGTGTKLTVL
In assay [1], B6 registered a Neutralization IC50 (RSV subtype A) of 0.01 µg/mL. Also, the Kd in assay [2] came to 728 pM.

B7: ADI-41204 (antibody, V domains shown)
VH: EVQLLESGGGLVKPGGSLRLSCAASGFTFSSYSMNWVRQAPGKGLEWVSSISAGSSYIYYADSVKGRFTISRDNAKNSLYLQMNSLRAEDTAVYYCARVPSYETTPYFDYWGQGTLVTVSS
VL: B6 VL with P2S, A31S, P32G, F33Y, V35L, P48L, G52V, G98S, L108V
B7: the Neutralization IC50 (RSV subtype A) in assay [1] was 0.06 µg/mL. The molecule further registered a Kd in assay [2] of 545 pM.

B8: ADI-41216 (antibody, V domains shown)
VH: EVQLVESGGGLVKPGESLRLSCAASGFRFSDHYMSWIRQAPGKGLEWISYISSSSSYIHYADSVTGRFTISRDNAKNSMYLQMNSLRAEDTAVYYCAREIGRSYYMDVWGKGTTVTVSS
VL: QSALIQPPSVSGAPGQRVTISCTGSSSNIGAGYDVHWYQQLPGTAPKLLIYGNNNRPSGVPDRFSASKSGISASLAITGVQTEDEADYYCQSYDRSLSEFYVFGSGTKVTVL
With B8, the Neutralization IC50 (RSV subtype A) in assay [1] came to 0.19 µg/mL. This molecule also displayed a dissociation constant (Kd) in assay [2] of 903 pM.

B9: ADI-41165 (antibody, V domains shown)
VH: EVQLVETGAEVKKPGESLKISCKGSGYSFTSYWIGWVRQMPGKGLEWMGIIYPGDSDTRYSPSFQGQVTISADKSISTAYLQWSSLKASDTAMYYCARRYDYIDIWGQGTMVTVSS
VL: DIRVTQSPSSLSASVGDRVTITCQASQDISNYLNWYQQKPGKAPKLLIYDASNLETGVPSRFSGSGSGTDFTFTISSLQPEDIATYYCQQYDNLAHITFGPGTKVEIK
As for B9, the Neutralization IC50 (RSV subtype A) in assay [1] is more than 25 µg/mL. Moreover, the Kd in assay [2] amounted to 2400 pM.

B10: ADI-41199 (antibody, V domains shown)
VH: QVQLVESGGGLVKPGGSLRLSCGASGFTFPDYYMSWIRQAPGKGLEWLSYISSSSSFTDYADSVKGRFTISRDNAKKSLYLQMNSLRAEDTAVYYCARVRADYVGNSRIHFDYWGQGTLVTVSS
VL: DIVMTQSPVTLSVSPGERATLSCRASQSLNGYLAWYQQKPGQAPRLLIYGASTRATEPGWDTSGRGSGTEFTLTISSLQSEDFAVYYCQQYNDWPFTFGQGTRLEIK
Take B10: the Neutralization IC50 (RSV subtype A) in assay [1] is 0.23 µg/mL. In assay [2], this molecule gave a Kd of 1730 pM.

B11: ADI-41147 (antibody, V domains shown)
VH: EVQLVESGGGLVKPGGSLRLSCAASGFTLSGYYMSWVRQAPGKGLEWISYISGGSTYTNYADSVNGRFTISRDNAKNSLYLQMDSLRAEDTAVYYCARLEYGDYGPYYLGLWGRGTLVTVSS
VL: QSVLTQPPSVSGAPGQRVTISCTGTSSNIGAGYDVHWYQKLPGTAPKLLIYANNNRPSGVPDRFSGSKSGTSASLAITGLQAEDEADYYCQSYDTSLSAHYVFGTGTKLTVL
B11 displayed a Neutralization IC50 (RSV subtype A) in assay [1] of 0.06 µg/mL. The same molecule gave a Kd in assay [2] of 467 pM.

B12: ADI-41226 (antibody, V domains shown)
VH: EVQLVESGGGLVKPGGSLRLSCAASRFTFAGYYMSWIRQAPGKGLEWVSDISPSSTYTNYADSVKGRFTISRDNAGTSVSLQMDSLRADDTAVYYCARITPYGGSHYFDSWGQGTLVTVSS
VL: B11 VL with S2P, T25S, V35L, K40Q, A52G, N54S, T95N, A99G, H100F, L109V
The molecule B12 had a Neutralization IC50 (RSV subtype A) in assay [1] of 0.15 µg/mL. For the same molecule, in assay [2], the Kd is 820 pM.

B13: ADI-41168 (antibody, V domains shown)
VH: EVQLVETGGGVVQPGRSLRLSCAASGFTFSSYGMHWVRQAPGKGLEWVAVISYDGSNKYYADSVKGRFTISRDNSKNTLYLQMNSLRTEDTAVYYCAKGGGYYYYYMDVWGKGTTVTVSS
VL: QPVLTQPASVSGSPGQSITISCTGTSSDVGGYNYVSWYQQHPGKAPKLMIYGVNNRPSGVSNRFSGSKSGNTASLTISGLQGEDEADYYCNSYRSGITVVFGGGTKLTVL
The molecule B13 came in with a Neutralization IC50 (RSV subtype A) in assay [1] of more than 25 µg/mL. For the same molecule, the Kd in assay [2] turned out to be 133000 pM.

B14: ADI-36679 (antibody, V domains shown)
VH: QVQLVQSGAEVKKPGESLKISCKGSGYSFRSYWIAWVRQMPGKGLEWMGTIFPGDSDVTYSPSFQGQVTISVDKSTSTAYLQWGSLKASDTAIYYCARRYDYIDFWGQGTLVTVSS
VL: DIQMTQSPSSLSASVGDRVTITCQASQDIINHLNWYQQKPGKAPKLLIYDASNLHPGVPSRFSGSGSGTYFTFTISSLQPDDFATYYCQQYDFLAHITFGPGTKVDIK
With B14, the Neutralization IC50 (RSV subtype A) in assay [1] turned out to be 0.01 µg/mL. The molecule also gave a Kd in assay [2] of 878 pM.

B15: ADI-41157 (antibody, V domains shown)
VH: EVQLVESGPGLVKPSETLSLTCTVSGGSISTYYWSWIRQPPGKGLEWIGYIYYTGSTNYNPSLKSRVTISLDTSKNQFSLKLSSVSAADTAFYYCARSPPVPGTRSWFDPWGQGTLVTVSS
VL: SPGLTQPQSAFGTPGQRVTISCFGSSSNIGRNHIYWYQQVPGTAPKLLIYRNNQRPSGVPDRFFGSKFGTSASLAISGVRSEDEADYFCAAWDDSLSGPVFGGGTKLTVL
Consider B15, for which the Neutralization IC50 (RSV subtype A) in assay [1] amounted to 0.22 µg/mL. Moreover, the Kd in assay [2] is 507 pM.

B16: ADI-41206 (antibody, V domains shown)
VH: EVQLLESGGGLVKPGGSLRLSCAGSGFSFSSYSMNWVRQAPEKGLEWVSSISASSSFINYADSVKGRFIISRDNAKNSLFLQMDSLRAEDTAVYYCARDGVHPGGYIFGGYIDSWGQGTLVTVSS
VL: QSVLTQPPSVSGAPGQRVTISCTGSSSNIGAGYDVHWFRQLPGTAPKLLIYGNNNRPSGVPDRFSGSKSGSSASLIITGLQAQDEATYYCQSYDSSLSGYVFGTGTKLTVL
In turn, B16 showed a Neutralization IC50 (RSV subtype A) in assay [1] of 0.07 µg/mL. The same molecule showed a Kd in assay [2] of 409 pM.

B17: ADI-36680 (antibody, V domains shown)
VH: QVTLKESGAELRKPGESLKISCKASGYRFTNYWIGWVRQMPGKGLEWMGVIYPGDSDTKYSPSFQGQVTMSADKSINTAYLQWSSLKASDTAIYYCVSLFGDYDYGALDYWGQGTLVTVSS
VL: ETTLTQSPATLSMSPGERATLSCRASQSVGRNLAWYQQKPGQAPRLLIYGASIRATGILARFSGSGSGTEYTLTISSLQPEDFAVYYCQQYHDWPSFTFGPGTKVDIK
In assay [1], B17 showed a Neutralization IC50 (RSV subtype A) of 0.01 µg/mL. Further, the Kd in assay [2] was 719 pM.

B18: ADI-41188 (antibody, V domains shown)
VH: QVQLQQWGAGLLKSSETLSLTCAVYGGSFSGYYWSWIRQSPGKGLEWIGEINHSGSANYNPSLKNRVTISRDTSKNQFSLWLSSVTAADTAVYYCARTSRSPEPDNYYYYMDVWGRGTTVTVSS
VL: QSVLTQPPSVSGAPGQRVSISCTGSSSDIGAGYDVHWYQQFPGTAPKLLMYANNNRPSGVPDRFSGSRSGTSASLAITGLQAEDEADYYCQSYDSNLDVVVFGGGTKLTVL
Turning to B18, the Neutralization IC50 (RSV subtype A) in assay [1] amounted to 0.15 µg/mL. For the same molecule, the Kd in assay [2] came out at 224 pM.

B19: ADI-41198 (antibody, V domains shown)
VH: EVQLVQSGGVVIQPGGSLRLSCAASGFSFDEYLMHWVRQLPGKGLEWVALISWHGDITYYADSVKGRFTISRDNSRYSLYLQMNSLRSDDTALYYCVKDGWIEGAFNHTFGIGYYFENWGQGTLVTVSS
VL: DIVLTQTPSSLSASVGDRVTITCQASQDINNCLNWYQQKPGKAPEVLIFDASNLETGVPLRFSGSGSGTHFTLTISSLQPEDIATYYCQQHENVPLTFGGGTKVEIK
As to B19, the Neutralization IC50 (RSV subtype A) in assay [1] was 0.32 µg/mL. In assay [2], this molecule yielded a Kd of 756 pM.

Values taken from patent US20260258115A1.
